± gives the uncertainty stated by the source.

This series can be described thus: amyloid nucleation score (Sup35N fusion, yeast selection) (log enrichment); library NNK3; higher = more nucleation; inactive = no reads after selection. An outline of the steps: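 Random libraries were run with three technical output replicates. In each, psi-negative yeast expressing Sup35N fused to peptides of 20 random codons were induced 24 hours with 100 μM copper sulfate and grown 7 days at 30°C on medium lacking adenine and uracil, and input and output plasmid inserts were Illumina-sequenced. The nucleation score is the DiMSum log enrichment of output over input reads, centred on the mode score of non-aggregating sequences, and sequences under 100 input reads were excluded.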
In the case of DRVFLQPTCYITAGYGFRVM, the amyloid nucleation score result is “inactive”.

On to MLSSCRVFRLFCFNCVTLNR, for which the amyloid nucleation score was 0.816 ± 0.16.

For QQHDELCGVHMGSGHF, the amyloid nucleation score result is “inactive”.

As for ICISKRYWHDIAFCIGYSNE, the amyloid nucleation score amounted to 1.29 ± 0.12.

Turning to TVYEA, the amyloid nucleation score result is “inactive”.

The substance AWSGFE had an amyloid nucleation score of 0.01 ± 1.2.

Turning to WHIEVC, the amyloid nucleation score entry was “inactive”.

GVVANFSLPLSAVFAWRSFR registered an amyloid nucleation score of 2.78 ± 0.055.

As for YKSSNRSFFGIMANQPRLGC, the amyloid nucleation score result is “inactive”.

In turn, WCAWAVTCLTGVISRPLHES gave an amyloid nucleation score of 0.042 ± 0.43.

In the case of FPRSSRIFSCCSRIRLCAFV, the amyloid nucleation score entry is “inactive”.

Take MTRKYQNR: the amyloid nucleation score entry is “inactive”.

For the substance NLLYSCVYRHQPLYPAMDFP, the amyloid nucleation score result is “inactive”.

Regarding SYDGWCVTYFDV, the amyloid nucleation score entry was “inactive”.

Turning to MLWYLESWLTLHGTVECNVW, the amyloid nucleation score result was “inactive”.

For the substance SMHYAQYIIIYWRMSSRVYD, the amyloid nucleation score entry was “inactive”.

Consider FDFARWKDMKRESFLFLDVR, for which the amyloid nucleation score entry was “inactive”.

For the substance AINDMRPVKSRGGVVELYML, the amyloid nucleation score entry was “inactive”.

For FPYLRRTMGVLIYQCVPIRG, the amyloid nucleation score result is “inactive”.

LCLFRTRVIGVS: the amyloid nucleation score entry is “inactive”.

In the case of IRYRRHVNVEFKMYNWSCWC, the amyloid nucleation score is -0.554 ± 0.63.

As to GLLANWYVQH, the amyloid nucleation score result was “inactive”.

With AFLFTLL, the amyloid nucleation score result was “inactive”.

On to IVNIKMNLWFYGNFMLWASS, for which the amyloid nucleation score result is “inactive”.

With SYNFVNQYVWKEDRNTKVAI, the amyloid nucleation score result is “inactive”.

For the substance GTMYVGSGGYEKL, the amyloid nucleation score entry is “inactive”.

Substance KRWGEPYRMIVGYMVRYMVT had an amyloid nucleation score of 2 ± 0.089.

Consider ILRFFIT, for which the amyloid nucleation score result is “inactive”.

As for LYAFICTTYTCVVN, the amyloid nucleation score result was “inactive”.

Turning to FLVLVGIGIGMYLFVNHYVD, the amyloid nucleation score is 1.64 ± 0.088.

SYDMTLHG came in with an amyloid nucleation score of 0.436 ± 0.18.

ACLLVRYHTDDSNKRCSL: the amyloid nucleation score result is “inactive”.

Consider ADNIGRFVYCYCSVLQTTIS, for which the amyloid nucleation score was 0.401 ± 0.21.

Consider SRLWYSPGDYQVFKVRLHIW, for which the amyloid nucleation score entry is “inactive”.

On to FLYMSMPSLSMVQICYSQRG, for which the amyloid nucleation score is 1.99 ± 0.07.

Regarding IKWFLSNGIYYGILNFIDTR, the amyloid nucleation score entry is “inactive”.

As for NRFCLRSTLSYSWYGDRSWA, the amyloid nucleation score worked out at 0.185 ± 0.7.

In the case of KIDAN, the amyloid nucleation score result was “inactive”.

The substance MVRNRNYSLIYGWVPIQDEE returned an amyloid nucleation score of 1.82 ± 0.099.

In the case of VNSGVGVSVRRASSLCLCVR, the amyloid nucleation score result was “inactive”.

Regarding TPEVISSV, the amyloid nucleation score result was “inactive”.

Regarding SDLTMIRVPIFITLRPPHSS, the amyloid nucleation score result was “inactive”.

Take INPMGITDSVCSTAASG: the amyloid nucleation score entry is “inactive”.

Turning to FCPTVCQFMVPPPHPSKKLY, the amyloid nucleation score entry was “inactive”.

The substance YISEWSLSP had an amyloid nucleation score of 0.909 ± 0.13.

Substance GGTIFNGNWVSTLSHPQRRA returned an amyloid nucleation score of 0.47 ± 0.25.

For the substance SYFGDYLKIYFFYTQHNLSC, the amyloid nucleation score result was “inactive”.

In turn, VAKVNCTW had an amyloid nucleation score of -0.431 ± 0.9.

On to YTLMFNCRFALLFYYTFSYG, for which the amyloid nucleation score result was “inactive”.

For CASSNRRESSYVLYSQWDIG, the amyloid nucleation score entry was “inactive”.

Regarding VTPVTYQASLTICYSYKALH, the amyloid nucleation score result was “inactive”.

In the case of TVGTIPFWVALPSTSLNR, the amyloid nucleation score result is “inactive”.

Consider LGVRCYNFIRFKYLSCLRLP, for which the amyloid nucleation score entry is “inactive”.

On to VRKVSTAPAELHAIKSGDTH, for which the amyloid nucleation score entry was “inactive”.

Take SDGSCRVRAFYSYKGALVSF: the amyloid nucleation score result is “inactive”.

As for HRVRYVGPENSQNLCIRDYY, the amyloid nucleation score result is “inactive”.

As for NFKNMEWFLST, the amyloid nucleation score result was “inactive”.

GWKFMREYSKRIGSSSPVVY: the amyloid nucleation score entry was “inactive”.

Regarding LVMNNRYLYSRFLLLV, the amyloid nucleation score is -0.619 ± 0.73.

Consider YHLLFIVKAYIGVILNFLRS, for which the amyloid nucleation score result was “inactive”.

Turning to TYAYELRIFSDYSHGLGFDP, the amyloid nucleation score was -0.659 ± 0.88.

CSLRLVAFSACGV: the amyloid nucleation score result is “inactive”.

Take VFYGKGETYQEWHSLYFLKS: the amyloid nucleation score was -0.067 ± 0.98.

LTWYWKNGCSLLPLIGLSGN: the amyloid nucleation score result was “inactive”.

As to TFAFYLTILMSMFDRYFTWP, the amyloid nucleation score result was “inactive”.

For the substance IMPYC, the amyloid nucleation score entry is “inactive”.

On to REVGDQMIDLSRSYVQSTVG, for which the amyloid nucleation score entry is “inactive”.

In turn, EVFVLNYNWNVCHWLFVADV showed an amyloid nucleation score of 1.83 ± 0.083.

Take VSRRFVIM: the amyloid nucleation score was found to be 0.45 ± 0.17.

For the substance CRFVNLFGCVGS, the amyloid nucleation score entry was “inactive”.

As to RLHVRCNCDLSDGVPRAVCE, the amyloid nucleation score was 0.599 ± 0.23.

Take HRLVFCQLTR: the amyloid nucleation score entry was “inactive”.

With ELGFFCSL, the amyloid nucleation score result was “inactive”.

As to CLRECWCSGNTTHGSHWSTC, the amyloid nucleation score result is “inactive”.

Regarding LMDFLKYAMFRGTMVCW, the amyloid nucleation score result is “inactive”.

With WIVKL, the amyloid nucleation score entry is “inactive”.

Take TLNMEFIQFTRSFGKSISPC: the amyloid nucleation score result was “inactive”.

IWTLVVCFLDVRRRR yielded an amyloid nucleation score of -0.05 ± 0.53.

With MIFNHMNKL, the amyloid nucleation score entry was “inactive”.

LLSAMYNHPADMIAKLGKGG: the amyloid nucleation score result is “inactive”.

For the substance MSPFADKRHLADILCVHGS, the amyloid nucleation score result is “inactive”.

With VYSSVEFCISEKTHLKVWVL, the amyloid nucleation score entry was “inactive”.

Regarding LLAWRHEMLMFVPDNLSYGG, the amyloid nucleation score entry is “inactive”.

Consider GMCVGDLEAQTSEGTSNESW, for which the amyloid nucleation score result is “inactive”.

In the case of MSIVIYARLTWNYDSVFSFG, the amyloid nucleation score entry is “inactive”.

With RRELWRLRTVVCTMNLLYYA, the amyloid nucleation score entry is “inactive”.

With SMATDAWGTTKF, the amyloid nucleation score entry was “inactive”.

Consider TMYSLD, for which the amyloid nucleation score entry is “inactive”.

Consider WVWRSNSPGAEKWTLLTKTL, for which the amyloid nucleation score entry was “inactive”.

In the case of ERSHVCCGNDRYTLLWRVYS, the amyloid nucleation score result is “inactive”.

For LRGARCYKSNRVIGVLCGSV, the amyloid nucleation score entry is “inactive”.

Turning to LLCRE, the amyloid nucleation score entry is “inactive”.

For the substance HWSHNLQFIFFYSYVGLANE, the amyloid nucleation score worked out at 1.96 ± 0.077.

In the case of HGVWSCRWWLNNRMF, the amyloid nucleation score entry was “inactive”.

For DSLYWCSPFNGHCSDNNTQN, the amyloid nucleation score result was “inactive”.

Consider VLCQSHACRSHAGLCSSNKI, for which the amyloid nucleation score entry is “inactive”.

Consider VFYIHIREVTSVVIILVWCS, for which the amyloid nucleation score entry is “inactive”.

In the case of WTLARFTSD, the amyloid nucleation score result is “inactive”.

On to FQLWVKRTYNAEGNLYSPDD, for which the amyloid nucleation score result is “inactive”.

As to VLPVHNKVNITLTVSAPWLW, the amyloid nucleation score result is “inactive”.

Regarding SSDSVNLIRYLYVRPRFPIH, the amyloid nucleation score entry is “inactive”.

On to NLMEYSAC, for which the amyloid nucleation score turned out to be 0.182 ± 0.28.

As to GTITPRYRYVIEVSSMKRYW, the amyloid nucleation score result was “inactive”.

With RVLATFCG, the amyloid nucleation score entry was “inactive”.

For the substance SCVARYDRAAHRRVIETRLG, the amyloid nucleation score entry is “inactive”.

For the substance LAVGRTWMLVANWDSMGQIV, the amyloid nucleation score result is “inactive”.

Take AWGYYPSLCGKEDVYSWGWG: the amyloid nucleation score result is “inactive”.

Turning to SSGWNFPCSPSVMPDVVGVG, the amyloid nucleation score result is “inactive”.

As to RGSSTIYNETGLLGRLKGM, the amyloid nucleation score entry was “inactive”.

VLIITLMYMYATFLSFYKPQ had an amyloid nucleation score of 2.59 ± 0.085.

Turning to RNSRTVRRDLQINCR, the amyloid nucleation score result was “inactive”.

In turn, ANSNAFIQSDHIRYLLDFAM showed an amyloid nucleation score of 0.725 ± 0.18.

Turning to CSGYARTLS, the amyloid nucleation score entry is “inactive”.

Regarding VLGLFSTYDSFVCFN, the amyloid nucleation score entry is “inactive”.

In the case of WLPPRVMLFTPLRQWLYR, the amyloid nucleation score result was “inactive”.

On to RCDIFTTTFEFREVHCLWVG, for which the amyloid nucleation score result is “inactive”.

For LDFRSVTDVWSCYI, the amyloid nucleation score result was “inactive”.

Turning to AIISWQTLMWLYL, the amyloid nucleation score entry was “inactive”.

For the substance WVKPSSFWGFERNTYDIYIG, the amyloid nucleation score is -0.176 ± 0.62.

As to ALLFLIERALCPSCK, the amyloid nucleation score entry is “inactive”.

For PMPCIYVSGVWHRVLLCFLS, the amyloid nucleation score result is “inactive”.

As to LDTSD, the amyloid nucleation score result is “inactive”.

Consider SSFLFVKLLIMNRLVQKIYA, for which the amyloid nucleation score result is “inactive”.

As to IMANFVRMYLEYMMRAAVSL, the amyloid nucleation score entry was “inactive”.

Substance GIGIFSCLKSSVLCLIYLSR came in with an amyloid nucleation score of -0.113 ± 0.31.

Consider KEFCVRPLYRFSVRMNIC, for which the amyloid nucleation score is 0.035 ± 0.62.

For NMYLSMSLIFNTNYLPGMIS, the amyloid nucleation score result is “inactive”.

As to DFYGYSY, the amyloid nucleation score entry is “inactive”.

For LHVDS, the amyloid nucleation score entry was “inactive”.

The substance FRCPMFFNCSSVLTSHVSLA returned an amyloid nucleation score of 1.34 ± 0.16.

FVIVSL gave an amyloid nucleation score of 1.6 ± 0.069.

As for RNYDFSKGITVSWRLLHA, the amyloid nucleation score result is “inactive”.

The values above are taken from the supplement of paper PMC12042874.
